Assay results published in patent US20170152228A1, “SCREENING METHODS FOR THE BINDING AFFINITY OF CHEMICAL […] TO BIOLOGICAL MOLECULES AND NEDD4-1 […] THE SCREENING METHODS” (Northwestern University, published 2017).

Biological target: ubiquitin (Homo sapiens (Human), UniProt P0CG48)
Assay: not stated how the value was obtained. It is named in the context of the fluorescence polarization assay.

Kd: 11 µM
B1: NEDD4-1 HECT domain (enzyme)
chain: GPLGSRDYKRKYEFFRRKLKKQNDIPNKFEMKLRRATVLEDSYRRIMGVKRADFLKARLWIEFDGEKGLDYGGVAREWFFLISKEMFNPYYGLFEYSATDNYTLQINPNSGLCNEDHLSYFKFIGRVAGMAVYHGKLLDGFFIRPFYKMMLHKPITLHDMESVDSEYYNSLRWILENDPTELDLRFIIDEELFGQTHQHELKNGGSEIVVTNKNKKEYIYLVIQWRFVNRIQKQMAAFKEGFFELIPQDLIKIFDENELELLMCGLGDVDVNDWREHTKYKNGYSANHQVIQWFWKAVLMMDSEKRIRLLQFVTGTSRVPMNGFAELYGSNGPQSFTVEQWGTPEKLPRAHTCFNRLDLPPYESFEELWDKLQMAIENTQGFDGVD
